± gives the standard deviation of the averaged measurements.
Experiment: total protein half-life in vivo (active degradation + dilution); higher = more stable protein
[1] = E. coli NCM3722 delta-clpP delta-lon delta-hslV, growth: N-lim chemostat, doubling time 6 h
[2] = E. coli NCM3722 delta-clpP, growth: N-lim chemostat, doubling time 6 h
[3] = wild type E. coli NCM3722, growth: C-lim chemostat, doubling time 3 h
[4] = wild type E. coli NCM3722, growth: C-lim chemostat, doubling time 6 h
[5] = wild type E. coli NCM3722, growth: C-lim chemostat, doubling time 12 h
[6] = E. coli NCM3722 delta-smpB, growth: N-lim chemostat, doubling time 6 h
[7] = wild type E. coli NCM3722, growth: N-lim chemostat, doubling time 6 h
[8] = wild type E. coli NCM3722, growth: N-lim chemostat, doubling time 12 h
[9] = wild type E. coli NCM3722, growth: P-lim chemostat, doubling time 6 h
[10] = wild type E. coli NCM3722, growth: P-lim chemostat, doubling time 12 h
[11] = E. coli NCM3722 delta-hslV, growth: N-lim chemostat, doubling time 6 h
[12] = E. coli NCM3722 delta-lon, growth: N-lim chemostat, doubling time 6 h

MSFMVSEEVTVKEGGPRMIVTGYSSGMVECRWYDGYGVKREAFHETELVPGEGSRSAEEV
total protein half-life in vivo [1]: 5.18 h
total protein half-life in vivo [2]: 0.609 ± 0.66 h
total protein half-life in vivo [3]: 0.36 h
total protein half-life in vivo [4]: 0.469 h

MSFSEFYQRSINEPEQFWAEQARRIDWQTPFTQTLDHSNPPFARWFCEGRTNLCHNAIDRWLEKQPEALALIAVSSETEEERTFTFRQLHDEVNAVASMLRSLGVQRGDRVLVYMPMIAEAHITLLACARIGAIHSVVFGGFASHSVAARIDDAKPVLIVSADAGARGGKIIPYKKLLDDAISQAQHQPRHVLLVDRGLAKMARVSGRDVDFASLRHQHIGARVPVAWLESNETSCILYTSGTTGKPKGVQRDVGGYAVALATSMDTIFGGKAGSVFFCASDIGWVVGHSYIVYAPLLAGMATIVYEGLPTWPDCGVWWTIVEKYQVSRMFSAPTAIRVLKKFPTAEIRKHDLSSLEVLYLAGEPLDEPTASWVSNTLDVPVIDNYWQTESGWPIMAIARGLDDRPTRLGSPGVPMYGYNVQLLNEVTGEPCGVNEKGMLVVEGPLPPGCIQTIWGDDGRFVKTYWSLFSRPVYATFDWGIRDADGYHFILGRTDDVINVAGHRLGTREIEESISSHPGVAEVAVVGVKDALKGQVAVAFVIPKESDSLEDRDVAHSQEKAIMALVDSQIGNFGRPAHVWFVSQLPKTRSGKMLRRTIQAICEGRDPGDLTTIDDPASLDQIRQAMEE
total protein half-life in vivo [4]: 0.366 ± 0.12 h
total protein half-life in vivo [5]: 0.611 h

MSFWKVAAAQYEPRKTSLTEQVAHHLEFVRAAARQQCQLLVFPSLSLLGCDYSRRALPAPPDLSLLDPLCYAATTWRMTIIAGLPVEYNDRFIRGIAVFAPWRKTPGIYHQSHGACLGRRSRTITVVDEQPQGMDMDPTCSLFTTGQCLGEPDLLASARRLQFFSHQYSIAVLMANARGNSALWDEYGRLIVRADRGSLLLVGQRSSQGWQGDIIPLR
total protein half-life in vivo [1]: 5.47 h

MSGARLHTLLPELTTRQSVMVVGAAVIDVIADAYALPWRGCDIELKQQSVNVGGCALNIAVALKRLGIEAGNALPLGQGVWAEMIRNRMAKEGLISLIDNAEGDNGWCLALVEPDGERTFMSFSGVENQWNRQWLARLTVAPGSLLYFSGYQLASPCGELLVEWLEELQDVTPFIDFGPRIGDIPDALLARIMACRPLVSLNRQEAEIAAERFALSAEITTLGKQWQEKFAAPLIVRLDKEGAWYFSNDASGCIPAFPTQVVDTIGAGDSHAGGVLAGLASGLPLADAVLLGNAVASWVVGHRGGDCAPTREELLLAHKNV
total protein half-life in vivo [1]: 4.46 ± 0.92 h
total protein half-life in vivo [2]: 3.62 ± 0.076 h
total protein half-life in vivo [6]: 3.76 ± 0.33 h
total protein half-life in vivo [3]: 3.02 ± 0.012 h
total protein half-life in vivo [4]: 4.79 ± 0.53 h
total protein half-life in vivo [5]: 6.71 ± 3.7 h
total protein half-life in vivo [7]: 3.67 ± 0.096 h
total protein half-life in vivo [8]: 6.33 ± 1.1 h
total protein half-life in vivo [9]: 4.76 ± 0.76 h
total protein half-life in vivo [10]: 11.1 ± 2.4 h

MSGFFQRLFGKDNKPAIARGPLGLHLNSGFTLDTLAFRLLEDELLIALPGEEFTVAAVSHIDLGGGSQIFRYYTSGDEFLQINTTGGEDIDDIDDIKLFVYEESYGISKESHWREAINAKAMGAMTLNWQEKRWQRFFNSEEPGNIEPVYMLEKVENQNHAKWEVHNFTMGYQRQVTEDTYEYLLLNGEESFNDLGEPEWLFSRALGVDIPLTSLHIIG
total protein half-life in vivo [1]: 4.45 h
total protein half-life in vivo [11]: 6.47 ± 1 h
total protein half-life in vivo [12]: > 8 h
total protein half-life in vivo [3]: 3.22 h
total protein half-life in vivo [5]: 12.2 h
total protein half-life in vivo [7]: 5.26 h
total protein half-life in vivo [9]: 6.38 h

MSGGLVTAAYIVAAILFIFSLAGLSKHETSRQGNNFGIAGMAIALIATIFGPDTGNVGWILLAMVIGGAIGIRLAKKVEMTEMPELVAILHSFVGLAAVLVGFNSYLHHDAGMAPILVNIHLTEVFLGIFIGAVTFTGSVVAFGKLCGKISSKPLMLPNRHKMNLAALVVSFLLLIVFVRTDSVGLQVLALLIMTAIALVFGWHLVASIGGADMPVVVSMLNSYSGWAAAAAGFMLSNDLLIVTGALVGSSGAILSYIMCKAMNRSFISVIAGGFGTDGSSTGDDQEVGEHREITAEETAELLKNSHSVIITPGYGMAVAQAQYPVAEITEKLRARGINVRFGIHPVAGRLPGHMNVLLAEAKVPYDIVLEMDEINDDFADTDTVLVIGANDTVNPAAQDDPKSPIAGMPVLEVWKAQNVIVFKRSMNTGYAGVQNPLFFKENTHMLFGDAKASVDAILKAL [P0AB67]
total protein half-life in vivo [1]: 6.55 ± 0.55 h
total protein half-life in vivo [2]: 6.742 ± 0.019 h
total protein half-life in vivo [11]: 6.72 ± 1.3 h
total protein half-life in vivo [12]: 5.57 ± 0.22 h
total protein half-life in vivo [6]: 6.05 ± 0.38 h
total protein half-life in vivo [3]: 3.36 ± 0.3 h
total protein half-life in vivo [4]: 6.08 ± 1.6 h
total protein half-life in vivo [5]: 14.8 ± 0.91 h
total protein half-life in vivo [7]: 6.02 ± 0.96 h
total protein half-life in vivo [8]: 11.7 ± 0.14 h
total protein half-life in vivo [9]: 6.5 ± 0.41 h
total protein half-life in vivo [10]: 11.6 ± 1.1 h

MSGLRPALSTFIFLLLITGGVYPLLTTVLGQWWFPWQANGSLIREGDTVRGSALIGQNFTGNGYFHGRPSATAEMPYNPQASGGSNLAVSNPELDKLIAARVAALRAANPDASASVPVELVTASASGLDNNITPQAAAWQIPRVAKARNLSVEQLTQLIAKYSQQPLVKYIGQPVVNIVELNLALDKLDE
total protein half-life in vivo [11]: 4.28 h
total protein half-life in vivo [10]: 11.7 ± 2.1 h

MSHLAELVASAKAAISQASDVAALDNVRVEYLGKKGHLTLQMTTLRELPPEERPAAGAVINEAKEQVQQALNARKAELESAALNARLAAETIDVSLPGRRIENGGLHPVTRTIDRIESFFGELGFTVATGPEIEDDYHNFDALNIPGHHPARADHDTFWFDTTRLLRTQTSGVQIRTMKAQQPPIRIIAPGRVYRNDYDQTHTPMFHQMEGLIVDTNISFTNLKGTLHDFLRNFFEEDLQIRFRPSYFPFTEPSAEVDVMGKNGKWLEVLGCGMVHPNVLRNVGIDPEVYSGFAFGMGMERLTMLRYGVTDLRSFFENDLRFLKQFK
total protein half-life in vivo [1]: 5.84 ± 0.27 h
total protein half-life in vivo [2]: 6.11 ± 0.96 h
total protein half-life in vivo [11]: 5.72 ± 0.43 h
total protein half-life in vivo [12]: 6.07 ± 0.69 h
total protein half-life in vivo [6]: 4.98 ± 0.13 h
total protein half-life in vivo [3]: 3.49 ± 0.22 h
total protein half-life in vivo [4]: 6.19 ± 0.32 h
total protein half-life in vivo [5]: 12.5 ± 0.82 h
total protein half-life in vivo [7]: 5.37 ± 0.42 h
total protein half-life in vivo [8]: 9.85 ± 0.2 h
total protein half-life in vivo [9]: 6.28 ± 0.36 h
total protein half-life in vivo [10]: 12.91 ± 0.048 h

MSHLDNGFRSLTLQRFPATDDVNPLQAWEAADEYLLQQLDDTEIRGPVLILNDAFGALSCALAEHKPYSIGDSYISELATRENLRLNGIDESSVKFLDSTADYPQQPGVVLIKVPKTLALLEQQLRALRKVVTSDTRIIAGAKARDIHTSTLELFEKVLGPTTTTLAWKKARLINCTFNEPQLADAPQTVSWKLEGTDWTIHNHANVFSRTGLDIGARFFMQHLPENLEGEIVDLGCGNGVIGLTLLDKNPQAKVVFVDESPMAVASSRLNVETNMPEALDRCEFMINNALSGVEPFRFNAVLCNPPFHQQHALTDNVAWEMFHHARRCLKINGELYIVANRHLDYFHKLKKIFGNCTTIATNNKFVVLKAVKLGRRR
total protein half-life in vivo [1]: 5.55 ± 0.53 h
total protein half-life in vivo [2]: 5.19 ± 0.25 h
total protein half-life in vivo [11]: 5.29 ± 0.23 h
total protein half-life in vivo [12]: 5.64 ± 0.14 h
total protein half-life in vivo [6]: 4.7 ± 0.66 h
total protein half-life in vivo [3]: 3.05 ± 0.51 h
total protein half-life in vivo [4]: 5.87 ± 0.088 h
total protein half-life in vivo [5]: 11.9 ± 1.5 h
total protein half-life in vivo [7]: 5.175 ± 0.041 h
total protein half-life in vivo [8]: 8.16 ± 1.4 h
total protein half-life in vivo [9]: 5.7 h

— the supplement of paper PMC11246515
